Laboratory results: article PMC12892892

Target: recombinant natriuretic peptide receptor B (NPR-B) (UniProt P20594)
Assay: SPR; recombinant NPR-B immobilised on a CM5 chip by amine coupling (10 ug/mL, 10 mM sodium acetate pH 4.5); CBD-CNP injected at 1.25, 2.5, 5.0, 10 and 20 uM in 50 mM Tris HCl pH 7.5, 200 mM NaCl, 1 mM CaCl2; Biacore X; single-cycle kinetics, 1:1 Langmuir model

UniProt P20594, sequence (P20594 23-458): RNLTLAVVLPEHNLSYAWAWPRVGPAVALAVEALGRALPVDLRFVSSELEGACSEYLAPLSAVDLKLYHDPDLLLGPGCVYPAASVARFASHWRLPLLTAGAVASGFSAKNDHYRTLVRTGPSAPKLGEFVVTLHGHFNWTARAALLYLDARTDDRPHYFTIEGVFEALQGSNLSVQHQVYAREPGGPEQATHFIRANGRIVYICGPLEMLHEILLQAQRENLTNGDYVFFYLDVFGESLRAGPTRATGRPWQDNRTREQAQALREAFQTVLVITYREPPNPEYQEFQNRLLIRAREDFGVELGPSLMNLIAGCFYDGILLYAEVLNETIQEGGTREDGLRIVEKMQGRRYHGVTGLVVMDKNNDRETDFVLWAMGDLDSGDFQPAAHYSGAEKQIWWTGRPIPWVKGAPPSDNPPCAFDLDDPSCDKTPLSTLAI

## CBD-CNP (collagen-binding domain fused to C-type natriuretic peptide CNP-37) (from UniProt Q9X721 1003-1118)
  Kd: 495 µM
